Data published in publication PMC5725599, “Insights into substrate binding of ferulic acid esterases by arabinose and methyl hydroxycinnamate esters and molecular docking” (Scientific Reports, 2017).

Columns and labels:
[1] = substrate: COC(=O)/C=C/c1ccc(O)c(O)c1; experiment: HPLC of released free acid, Michaelis-Menten nonlinear fit; assay type: biochemical, Aspergillus niger; settings: 100 mM MOPS-NaOH pH 6.0, 45 °C, 30 min, substrate stock in DMSO
Text: (§1) HPLC of released free acid, Michaelis-Menten nonlinear fit on AnFaeA

[2] = substrate: COC(=O)/C=C/c1ccc(O)c(OC)c1; experiment: as above; assay type: biochemical, Aspergillus niger; settings: 100 mM MOPS-NaOH pH 6.0, 45 °C, 30 min, substrate stock in DMSO
Text: as §1

B1: AnFaeA (Aspergillus niger) (protein)
chain: ASTQGISEDLYNRLVEMATISQAAYADLCNIPSTIIKGEKIYNAQTDINGWILRDDTSKEIITVFRGTGSDTNLQLDTNYTLTPFDTLPQCNDCEVHGGYYIGWISVQDQVESLVKQQASQYPDYALTVTGHSLGASMAALTAAQLSATYDNVRLYTFGEPRSGNQAFASYMNDAFQVSSPETTQYFRVTHSNDGIPNLPPADEGYAHGGVEYWSVDPYSAQNTFVCTGDEVQCCEAQGGQGVNDAHTTYFGMTSGACTW
notes: recombinant, expressed in Pichia pastoris as described previously
In the case of B1, the Km [1] is reported as 870 ± 170 µM and the Km [2] is reported as 1420 ± 260 µM.
